From publication PMC4605295, “The N-terminus of RPA large subunit and its spatial position are important for the 5′->3′ resection of DNA double-strand breaks” (Nucleic Acids Research, 2015)

Biological target: T1, GST fusion of Xenopus RPA1 (RPA large subunit) (Xenopus, UniProt Q01588 1-609)
T1 construct: Xenopus RPA1, large subunit of replication protein A; the gene for the subunit was subcloned into a pGEX vector; In-frame GST fusion from a pGEX vector; also called the large subunit; source: E. coli BL21(DE3), purified (glutathione Sepharose)
Experiment: pull-down; GST fusions of RPA subunits or RPA1 regions incubated with His-tagged WRN 1-465, isolated on glutathione Sepharose beads, 4°C 1 h; washed with buffer A + 150 mM NaCl + 0.005% NP-40; Western blot for WRN
Conditions: both partners purified

T1 sequence (Q01588 whole entry, the tested form may be a part): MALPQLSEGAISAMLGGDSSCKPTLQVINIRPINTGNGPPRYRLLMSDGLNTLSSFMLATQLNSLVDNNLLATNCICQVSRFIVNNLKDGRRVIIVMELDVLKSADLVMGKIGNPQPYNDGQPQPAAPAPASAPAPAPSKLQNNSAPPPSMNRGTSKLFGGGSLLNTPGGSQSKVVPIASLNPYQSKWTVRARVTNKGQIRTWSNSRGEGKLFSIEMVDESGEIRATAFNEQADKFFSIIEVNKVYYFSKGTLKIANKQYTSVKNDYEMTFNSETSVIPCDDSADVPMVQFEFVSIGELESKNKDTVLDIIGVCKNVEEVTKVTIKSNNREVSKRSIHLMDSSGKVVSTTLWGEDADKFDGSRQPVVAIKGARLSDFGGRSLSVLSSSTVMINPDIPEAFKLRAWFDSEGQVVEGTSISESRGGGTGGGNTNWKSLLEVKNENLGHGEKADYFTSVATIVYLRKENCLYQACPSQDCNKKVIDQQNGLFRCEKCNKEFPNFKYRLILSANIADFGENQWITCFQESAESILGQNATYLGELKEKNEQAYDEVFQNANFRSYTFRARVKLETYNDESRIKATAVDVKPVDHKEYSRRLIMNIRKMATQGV

B1: His-tagged Xenopus WRN 1-465 (domain or fragment, UniProt O93530 1-465, looked up)
chain: MTSLQRKLPEWMSVKQQEDRIDDAKKSFCKKNILEDNLPFMKFNGSIVYSYESNDCSLLSEDIRSSLLEEDVLGFDIEWPPVYTKGKTGKVALIQVCVSEKKCYLFHISPMAGFPKGLKRLLEDESVRKVGVGIEGDQWKLMSDYELKLKGFIELSEMANQKLRCKEKWTFNGLIKHLFKEQLYKRKSYRCSNWDIFLLTEDQKLYAATDAYAGLLIYKKLEGMDAHESDSFRVGREGVADCKGVKRQLTDLSKGLMDLVNQVPNSFGCYTEAVRAVDILEDLSEKLEELRNIMKEASKAEGNGLHFQNSEDCSKKDKSILHVACKESLAEHKMDCKNADSQNNKDIDSCQNENRDEDFFMTLGISEEELYMMEREDDKKQTNPDYKLNKDSCDTNEEKDMSYVIESDEDFDSEIIKSLEDLDNSTEEALGTGVPQAGLIPAKSVDTVADEEEDEGIEEEDDDDD
  binding result: binds
